Reference: PMC2801267

Experiments:
Ku70/80 heterodimer (Ku) = Ku70/80 heterodimer (Ku) (human? (HeLa cells), UniProt P12956;P13010 1-609;1-732); experiment: biotin pull-down
[1] = molecular target: Ku70/80 heterodimer (Ku);DNA-PKcs (human? (HeLa cells);human? (HeLa cells), UniProt P12956;P13010;P78527 1-609;1-732;1-4128, |); experiment: biotin pull-down

Sequence of Ku70/80 heterodimer (Ku) (P12956 whole entry, chain 1 of 2): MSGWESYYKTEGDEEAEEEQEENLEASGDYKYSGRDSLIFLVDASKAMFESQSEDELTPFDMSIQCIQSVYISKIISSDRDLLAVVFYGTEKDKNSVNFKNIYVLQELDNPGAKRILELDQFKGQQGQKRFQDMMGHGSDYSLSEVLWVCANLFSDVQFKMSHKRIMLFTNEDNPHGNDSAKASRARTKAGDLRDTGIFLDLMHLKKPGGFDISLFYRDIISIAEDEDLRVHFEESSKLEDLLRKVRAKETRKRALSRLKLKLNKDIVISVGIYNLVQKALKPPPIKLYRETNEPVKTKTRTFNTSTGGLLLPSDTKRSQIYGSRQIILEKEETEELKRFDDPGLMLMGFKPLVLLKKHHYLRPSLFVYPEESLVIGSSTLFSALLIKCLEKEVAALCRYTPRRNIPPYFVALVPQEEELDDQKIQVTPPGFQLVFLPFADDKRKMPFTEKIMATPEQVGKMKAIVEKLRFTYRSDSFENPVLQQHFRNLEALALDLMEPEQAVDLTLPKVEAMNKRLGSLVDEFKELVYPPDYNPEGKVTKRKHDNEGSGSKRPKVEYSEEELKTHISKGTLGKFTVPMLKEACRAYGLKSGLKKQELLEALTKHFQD
Sequence of Ku70/80 heterodimer (Ku) (P13010 whole entry, chain 2 of 2): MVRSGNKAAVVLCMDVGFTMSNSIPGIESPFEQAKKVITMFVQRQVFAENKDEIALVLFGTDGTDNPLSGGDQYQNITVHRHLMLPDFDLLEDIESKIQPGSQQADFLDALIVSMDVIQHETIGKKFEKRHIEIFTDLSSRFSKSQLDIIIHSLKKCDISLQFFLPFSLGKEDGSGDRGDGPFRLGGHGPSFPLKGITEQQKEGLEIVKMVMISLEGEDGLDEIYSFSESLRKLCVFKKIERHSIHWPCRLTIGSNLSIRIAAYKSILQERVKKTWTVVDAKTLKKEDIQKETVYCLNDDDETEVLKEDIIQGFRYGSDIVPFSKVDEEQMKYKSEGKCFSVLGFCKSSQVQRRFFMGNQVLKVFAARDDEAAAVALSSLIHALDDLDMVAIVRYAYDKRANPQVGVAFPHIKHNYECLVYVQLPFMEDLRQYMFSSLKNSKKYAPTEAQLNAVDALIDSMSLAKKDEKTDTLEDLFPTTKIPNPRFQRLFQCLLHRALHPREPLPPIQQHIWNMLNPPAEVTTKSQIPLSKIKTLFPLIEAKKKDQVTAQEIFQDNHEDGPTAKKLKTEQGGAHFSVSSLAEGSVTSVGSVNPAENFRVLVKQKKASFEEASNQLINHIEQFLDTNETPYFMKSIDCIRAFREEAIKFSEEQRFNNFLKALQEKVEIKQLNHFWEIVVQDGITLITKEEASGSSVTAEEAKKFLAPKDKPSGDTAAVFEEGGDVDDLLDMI

B1: 1 x biotin 40-bp dsDNA (dsDNA)
DNA 1: GGATACACAACAGACCGCAACACTCAGATTACTTTTCGCC
DNA 2: GGCGAAAAGTAATCTGAGTGTTGCGGTCTGTTGTGTATCC
modifications: 5'-biotin on oligo 1
B1: binds (Ku70/80 heterodimer (Ku)); binds [1].
